Experimental data from publication PMC8939767 (2022).

Key:
Assay in all cases: BLI
[1] = biological target: HCoV-OC43 soluble spike protein
[2] = biological target: SARS-CoV-2 soluble spike protein
[3] = biological target: SARS-CoV-1 soluble spike protein
[4] = biological target: T1, HCoV-HKU1 soluble spike ectodomain protein (HCoV-HKU1, UniProt Q5MQD0 13-1300)
T1 chain: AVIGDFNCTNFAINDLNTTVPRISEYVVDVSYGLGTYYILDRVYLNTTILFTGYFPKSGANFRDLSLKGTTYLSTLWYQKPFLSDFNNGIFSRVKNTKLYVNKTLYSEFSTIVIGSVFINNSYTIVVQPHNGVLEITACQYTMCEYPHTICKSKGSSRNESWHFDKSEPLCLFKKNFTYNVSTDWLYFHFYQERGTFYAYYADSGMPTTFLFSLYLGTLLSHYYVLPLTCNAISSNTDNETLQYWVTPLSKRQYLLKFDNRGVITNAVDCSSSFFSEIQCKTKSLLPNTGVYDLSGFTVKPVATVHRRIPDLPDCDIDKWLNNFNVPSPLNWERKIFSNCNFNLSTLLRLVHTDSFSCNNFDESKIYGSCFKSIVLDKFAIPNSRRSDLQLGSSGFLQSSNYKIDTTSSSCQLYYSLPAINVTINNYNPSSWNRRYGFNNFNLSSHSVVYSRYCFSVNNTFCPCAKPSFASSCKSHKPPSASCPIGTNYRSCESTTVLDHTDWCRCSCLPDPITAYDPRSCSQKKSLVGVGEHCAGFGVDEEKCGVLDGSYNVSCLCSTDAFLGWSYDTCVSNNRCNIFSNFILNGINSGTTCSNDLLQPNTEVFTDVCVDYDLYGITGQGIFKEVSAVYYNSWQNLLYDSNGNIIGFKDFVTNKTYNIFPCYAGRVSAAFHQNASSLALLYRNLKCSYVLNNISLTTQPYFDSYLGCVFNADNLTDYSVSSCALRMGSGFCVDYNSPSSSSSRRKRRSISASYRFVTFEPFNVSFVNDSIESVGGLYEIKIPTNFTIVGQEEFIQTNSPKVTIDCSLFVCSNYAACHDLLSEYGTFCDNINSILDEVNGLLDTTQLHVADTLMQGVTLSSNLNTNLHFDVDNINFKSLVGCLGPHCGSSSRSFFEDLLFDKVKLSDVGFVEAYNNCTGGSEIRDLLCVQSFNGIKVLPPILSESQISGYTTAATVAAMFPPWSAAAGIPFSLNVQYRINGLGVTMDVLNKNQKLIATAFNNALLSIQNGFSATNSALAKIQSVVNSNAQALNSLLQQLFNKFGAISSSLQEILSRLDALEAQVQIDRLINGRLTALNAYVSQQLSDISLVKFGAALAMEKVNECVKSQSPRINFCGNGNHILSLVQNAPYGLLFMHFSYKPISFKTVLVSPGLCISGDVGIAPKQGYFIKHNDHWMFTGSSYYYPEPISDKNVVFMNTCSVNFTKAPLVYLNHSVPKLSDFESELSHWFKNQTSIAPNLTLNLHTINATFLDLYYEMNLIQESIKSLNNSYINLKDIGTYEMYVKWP

B1: CC40.8 broadly neutralizing antibody (IgG) (antibody, V domains shown)
VH: EVQLLESGGGLVQPGGSLRLSCAASGFTFSSYVMTWARQAPGKGLEWVSAISGTGYTYYADSVKGRFTVSRDNSKNTLFLQMSSLRAEDTAVYYCAITMAPVVWGQGTTVTVSS
VL: SYELTQPPSVSVSPGQTARITCSGDALPKRYAYWYQQKSGQAPILVIYEDKKRPSGIPERLSGSKSGTVATLTISGAQVEDEADYYCYSTDSSGNHAVFGGGTQLTVL
For B1, the Kd [1] was ~10000 pM, the Kd [2] was < 1 pM and the Kd [3] was < 1 pM. For the same binder, the Kd [4] was < 1 pM.
